{"source": "patent US20250027068A1", "about": "(published 2025)", "binders": {"B1": {"name": "PRT-214 (enzyme)", "chain": "MEVVEVWPYGQNPNGKTEILSQTEDSESLQRLRDIEDFQAEKKKEGVVYTKWLDGVDVDDHDFRKITDGDIEYYATPLLNGRGFYDINKDFNRDSDKCAAAVAANMFHYWLDRNRDNVDRFLKQNPEKHGIIELPDGQLKLSDFLNTYESDYGYRDKSKLFDFISNNFNGPVWTDKLLDNYINGYAYNYKYGRTIEDPTKNTSKINFFKEVFDEKLLTNNHSIRNYNEFSELLREALYTGKAIGLSYGPAGLRHSLGHIISVWGADLDEDGNVVAIYVTDSDDKKLTIGDERVGLKRYKVSSDDENRARLTAYEEKDNTGGEIRGLYTLDTGKQAWADYFDKTEQTGTDQAEQLEHHHHHH"}, "B2": {"name": "PRT-216 (enzyme)", "chain": "MEVVEVWPYGQNPNGKTEILSQTEDSESLQRLRDIEDFQAEKKKENVVYTKWLDGVDVDDHDFRKIVDGNTEYYATPLLNGRGWYDINKDFNRDSDKCAAAVAANMFHYWLDQNRDNIDRFLRQSPEKHGIIELPDGQLKLSDFLNTYESDDGYRDKSKLFDFISNNFNGPVWTDKLLDNYINGYGYNYKYGRTIEDPTKNNSKINFFKKVFNGKILTDNHSIRNYNTFSDLLSEALYTGKAIGLSYGPAGLRHSLGHIISVWGADLDADGNVVAIYVTDSDDKKLTIGDERVGLKRYKISYDDENRARLTAYEENDNTGGQIRGLETLDTGKQAWADYFDKTEQTGTDQAEQLEHHHHHH"}, "B3": {"name": "PRT-221 (enzyme)", "chain": "MEVVEVWPYGQNPNGKTEILSQTEDSESLQRLRDIEDFQAEKKMQNVVYTKWLDGVDVKDHDFRKIVDGNIAYYATPLLNGRGFYDINKDFNRDSDKCAAAVAANMFHYWLDINRDNVDRFLRQNPEKHGIIELPDGQLKLSDFLNTYESDHGYRDKSKLFDFISNNFNGPVWTDKLLDNYINGYAYNYKYGRTIEDPTKNTSKINFFKEVFNEKILTNNHSIRNQNEFSVLLSEALYTGKAIGLSYGPAGLRHSLGHIISVWGADLDADGNVVAIYVTDSDDKKLTIGDERVGLKRYKISTDDENRLRLTAYEETHNTGGQIRGLWTLDTGKQAWADYFDKTEQTGTDQAEQLEHHHHHH"}, "B4": {"name": "PRT-225 (enzyme)", "chain": "B3 chain with M44K, Q45E, A72E, L308A, H317D"}, "B5": {"name": "PRT-224 (enzyme)", "chain": "B3 chain with M44K, N306G"}, "B6": {"name": "PRT-226 (enzyme)", "chain": "B3 chain with M44K, K59D, I71T, A72E, I113R, D175N, A186G, N306G, L308A, H317D"}, "B7": {"name": "PRT-223 (enzyme)", "chain": "B3 chain with M44K, Q45E, V231D"}, "B8": {"name": "PRT-222 (enzyme)", "chain": "B3 chain with N306G, Q334Y"}, "B9": {"name": "PRT-213 (enzyme)", "chain": "MEVVEVWPYGQNPNGKTEILSQTEDSESLQRLRDIEDFQAEKKKEGVVYTKWLDGVTVKDHDFRKIVDGNIEYYATPLLNGRGWYDINKDFNRDSDKCAAAVAANMFHYWLDRNRDNVDRFLKQNPEKHGIIELPDGQLKLSDFLNTYESDNGYRDKSKLFDFISKNFNGPVWTDKLLDNYINGYGYNYKYGRTIEDPTKNTSKINFFKKVFNEKILTDIHSIRNQNEFSDLLSEALYTGKAIGLSYGPAGLRHSLGHIISVWGADFDEDGNVVAIYVTDSDDKKLTIGDERVGLKRYKVSTDDEGRARLTAYTETDNTGGQVRGLYTLDTGTQAWADYFDKTEQTGTDQAEQLEHHHHHH"}, "B10": {"name": "PRT-215 (enzyme)", "chain": "B9 chain with Y327W"}, "B11": {"name": "PRT-211 (enzyme)", "chain": "MEVVEVWPYGQNPNGKTEILSQTEDSESLQRLRDIEDFQAEKKKQGVVYTKWLDGVDVDDHDFRKIVDGNIAYYATPLLNGKGFYDINKDFNRDSDKCAAAVAANMFHYWLDQNRDNVDRFLRQNPEKHGIIELPDGQLKLSDFLNTYESDNGYRDKSKLFDFISNNFNGPVWTDKLLDNYINGYAYNYKYGRTIEDPTKNTSKINFFKDVFNEKILTNIHSIRNYNTFSNLLSEALYTGKAIGLSYGPAGLRHSLGHIISVWGADLDEDGNVVAIYVTDSDDKKLTIGDERVGLKRYKISTDDEGRARLTAYEENDNTGGEIRGLWTLDTGKQAWADYFDKTEQTGTDQAEQLEHHHHHH"}, "B12": {"name": "PRT-218 (enzyme)", "chain": "MEVVEVWPYGQNPNGKTEILSQTEDSESLQRLRDIEDFQAEKKKQGVVYTKWLDGVNVDDHEFRKITDGNTEYYATPLLNGRGYYDINKDFNRDSDKCAAAVAANMFHYWLDRNRDNVDRFLRQNPDKHGIIELPDGQLKLSDFLNTYESDHDYRDKSKLFDFISNNFNGPVWTNKLLDNYINGYGYNYKYGRTIEDPTKNTSKINFFKEVFNGKLLTDNHSIRNKNEFSSKLSEALYTGKAIGLSYGPAGLRHSLGHIISVWGADLDEDGNVVAIYVTDSDDKKLTIGDERVGLKRYKVSYDDEGRARLTAYEETDNTGGEIRGLYTLDTGKQYWADYFDKTEQTGTDQAEQLEHHHHHH"}, "B13": {"name": "PRT-220 (enzyme)", "chain": "B12 chain with Y327W"}, "B14": {"name": "PRT-212 (enzyme)", "chain": "MEVVEVWPYGQNPNGKTEILSQTEDSESLQRLRDIEDFQAEKKKEGVVYTKWLDGVDVKDHDFRKIVDGNIEYYATPLLNGRGFYDINKDFNQDSDKCAAAVAANMFHYWLDRNRDNVDRFLSQNPEKHGIIELPDGQLKLSDFLNTYESDDGYRDKSKLFDLISNNFNGPVWTDKLLDNYINGYAYNYKYGRTIEDPTKNTSKINFFKEVFNEKILTNIHSIRNQNEFSDKLSEALYTGKAIGLSYGPAGLRHSLGHIISVWGADLDEDGNVVAIYVTDSDDKKLTIGDERVGLKRYKVSTDDEGRLRLTAYEETDNTGGEIRGIWTLDTGKQAWADYFDKTEQTGTDQAEQLEHHHHHH"}, "B15": {"name": "PRT-217 (enzyme)", "chain": "MEVVEVWPYGQNPNGKTEILSQTEDSESLQRLRDIEDFQAEKKKQNVVYTKWLDGVTVDDSDFRKIKDGNTEYYATPLLNGRGFYDINKDFNRDSDKCAAAVAANMFHYWLDRNRDNVDRFLKQNPEKHGIIELPDGQLKLSDFLNTYESDNNYRDKSKLFDFISKNFNGPVWTNKLLDNYINGYGYNYKYGRTIEDPTKNTSKINFFKKVFNEKILTNVHQIFNYNEFSTLLSEALYTGKAIGLSYGPGGLRHSLGHIISVWGADLDADGNVVAIYVTDSDDKKLTIGDERVGLKRYKISTDDEGRARLTAYTETDNTGGQVRGIYTLDTGKQAWADYFDKTEQTGTDQAEQLEHHHHHH"}, "B16": {"name": "PRT-219 (enzyme)", "chain": "B15 chain with Y327W"}}, "note": "Residue numbers refer to the chain shown, from its start. Also: test concentration or dose not given here."}
{"biological_target": "pooled human IgG (human)", "assay": "cell-based or functional assay", "units": {"Enzyme Activity Endpoint Assay (purified): Fab′2": "ng/µL", "Enzyme Activity Endpoint Assay (purified): Fc": "ng/µL", "Enzyme Activity Endpoint Assay (purified): IgG": "ng/µL", "Enzyme Activity Endpoint Assay (purified): scIgG": "ng/µL"}}
{"binder": "B1", "Enzyme Activity Endpoint Assay (purified): Fab′2": 467, "Enzyme Activity Endpoint Assay (purified): Fc": 27, "Enzyme Activity Endpoint Assay (purified): IgG": 1650, "Enzyme Activity Endpoint Assay (purified): scIgG": 0}
{"binder": "B2", "Enzyme Activity Endpoint Assay (purified): Fab′2": 0, "Enzyme Activity Endpoint Assay (purified): Fc": 0, "Enzyme Activity Endpoint Assay (purified): IgG": 1660, "Enzyme Activity Endpoint Assay (purified): scIgG": 0}
{"binder": "B3", "Enzyme Activity Endpoint Assay (purified): Fab′2": 117, "Enzyme Activity Endpoint Assay (purified): Fc": 439, "Enzyme Activity Endpoint Assay (purified): IgG": 653, "Enzyme Activity Endpoint Assay (purified): scIgG": 461}
{"binder": "B4", "Enzyme Activity Endpoint Assay (purified): Fab′2": 0, "Enzyme Activity Endpoint Assay (purified): Fc": 63, "Enzyme Activity Endpoint Assay (purified): IgG": 1500, "Enzyme Activity Endpoint Assay (purified): scIgG": 0}
{"binder": "B5", "Enzyme Activity Endpoint Assay (purified): Fab′2": 217, "Enzyme Activity Endpoint Assay (purified): Fc": 382, "Enzyme Activity Endpoint Assay (purified): IgG": 344, "Enzyme Activity Endpoint Assay (purified): scIgG": 314}
{"binder": "B6", "Enzyme Activity Endpoint Assay (purified): Fab′2": 0, "Enzyme Activity Endpoint Assay (purified): Fc": 0, "Enzyme Activity Endpoint Assay (purified): IgG": 1960, "Enzyme Activity Endpoint Assay (purified): scIgG": 0}
{"binder": "B7", "Enzyme Activity Endpoint Assay (purified): Fab′2": 189, "Enzyme Activity Endpoint Assay (purified): Fc": 391, "Enzyme Activity Endpoint Assay (purified): IgG": 375, "Enzyme Activity Endpoint Assay (purified): scIgG": 316}
{"binder": "B8", "Enzyme Activity Endpoint Assay (purified): Fab′2": 487, "Enzyme Activity Endpoint Assay (purified): Fc": 78, "Enzyme Activity Endpoint Assay (purified): IgG": 1550, "Enzyme Activity Endpoint Assay (purified): scIgG": 21}
{"binder": "B9", "Enzyme Activity Endpoint Assay (purified): Fab′2": 0, "Enzyme Activity Endpoint Assay (purified): Fc": 244, "Enzyme Activity Endpoint Assay (purified): IgG": 1290, "Enzyme Activity Endpoint Assay (purified): scIgG": 301}
{"binder": "B10", "Enzyme Activity Endpoint Assay (purified): Fab′2": 73, "Enzyme Activity Endpoint Assay (purified): Fc": 310, "Enzyme Activity Endpoint Assay (purified): IgG": 708, "Enzyme Activity Endpoint Assay (purified): scIgG": 309}
{"binder": "B11", "Enzyme Activity Endpoint Assay (purified): Fab′2": 0, "Enzyme Activity Endpoint Assay (purified): Fc": 68, "Enzyme Activity Endpoint Assay (purified): IgG": 2190, "Enzyme Activity Endpoint Assay (purified): scIgG": 0}
{"binder": "B12", "Enzyme Activity Endpoint Assay (purified): Fab′2": 0, "Enzyme Activity Endpoint Assay (purified): Fc": 39, "Enzyme Activity Endpoint Assay (purified): IgG": 1780, "Enzyme Activity Endpoint Assay (purified): scIgG": 0}
{"binder": "B13", "Enzyme Activity Endpoint Assay (purified): Fab′2": 0, "Enzyme Activity Endpoint Assay (purified): Fc": 61, "Enzyme Activity Endpoint Assay (purified): IgG": 2320, "Enzyme Activity Endpoint Assay (purified): scIgG": 0}
{"binder": "B14", "Enzyme Activity Endpoint Assay (purified): Fab′2": 13, "Enzyme Activity Endpoint Assay (purified): Fc": 435, "Enzyme Activity Endpoint Assay (purified): IgG": 1270, "Enzyme Activity Endpoint Assay (purified): scIgG": 599}
{"binder": "B15", "Enzyme Activity Endpoint Assay (purified): Fab′2": 0, "Enzyme Activity Endpoint Assay (purified): Fc": 86, "Enzyme Activity Endpoint Assay (purified): IgG": 1580, "Enzyme Activity Endpoint Assay (purified): scIgG": 41}
{"binder": "B16", "Enzyme Activity Endpoint Assay (purified): Fab′2": 104, "Enzyme Activity Endpoint Assay (purified): Fc": 407, "Enzyme Activity Endpoint Assay (purified): IgG": 886, "Enzyme Activity Endpoint Assay (purified): scIgG": 443}
